Assays:
Assay type in all cases: cell-based
α4β1 [1] = target: T1, α4β1 (Homo sapiens, UniProt P05556+P13612); test: J6 cell adhesion to GST-CS-1 (CS-1 fragment of fibronectin); details: SVVYGLR peptide with the residue mutated to alanine
T1 construct: Of the integrins analysed J6 express only α5β1 and α4βwhile HL60 express α4β1 and α5β1 and αLβ2; endogenous in cells; host or cells: J6 cells
Procedure: (§1) All proteins were coated onto MAXISORP plates (Nunc) overnight at 4° C. Each protein was diluted in PBS at the concentrations indicated, and a total volume of 100 μl added per well. Plates were washed twice in PBS then blocked with 3% BSA/PBS for 1 hr at 37° C., and finally washed twice in PBS. Routinely HL60 cells were pelleted and washed once in HBSS (Sigma) then spread in 25 mM Hepes 7.5, HBSS at 2×10^6 ml^−1 (100 μl per well) in the presence of 0.2 mM MnCl2 and 50 ng/ml TPA, with other additions as indicated. J6 cells were likewise pelleted and washed once in HBSS (Sigma) then spread in 25 mM Hepes (pH7.5), HBSS at 2×10^6ml^−1 (100 μl per well) in the presence of 0.2 mM MnCl2 and other additions as indicated. For antibody inhibition cells were preincubated with the antibody (10 μg/ml) on ice for 10 minutes. Cells were then allowed to attach for 35 minutes at 37° C., washed twice in PBS, once in ethanol, and fixed in ethanol for 20 minutes at room temperature. For quantitation cells were visualised by staining with 0.1% crystal violet (Sigma) for 10 minutes then lysed in 0.5% TRITON X-100 (Sigma) and read at 570 nm in a Wallac Victor plate reader.

α4β1 [2] = test: as above; details: J6/CS-1 versus RPMI8866/zz-MAdCAM
Procedure: as §1

α4β7 = target: T2, α4β7 (Homo sapiens, UniProt P13612+P26010); test: α4β7 adhesion assay: RPMI8866 cell adhesion to zz-MAdCAM; details: SVVYGLR peptide with the residue mutated to alanine
T2 construct: RPMI8866 cells which express α4β7, and small amounts of α4β1 and α5β1 were used; endogenous in cells; host or cells: RPMI8866 cells
T2 sequence (P13612 34-1032): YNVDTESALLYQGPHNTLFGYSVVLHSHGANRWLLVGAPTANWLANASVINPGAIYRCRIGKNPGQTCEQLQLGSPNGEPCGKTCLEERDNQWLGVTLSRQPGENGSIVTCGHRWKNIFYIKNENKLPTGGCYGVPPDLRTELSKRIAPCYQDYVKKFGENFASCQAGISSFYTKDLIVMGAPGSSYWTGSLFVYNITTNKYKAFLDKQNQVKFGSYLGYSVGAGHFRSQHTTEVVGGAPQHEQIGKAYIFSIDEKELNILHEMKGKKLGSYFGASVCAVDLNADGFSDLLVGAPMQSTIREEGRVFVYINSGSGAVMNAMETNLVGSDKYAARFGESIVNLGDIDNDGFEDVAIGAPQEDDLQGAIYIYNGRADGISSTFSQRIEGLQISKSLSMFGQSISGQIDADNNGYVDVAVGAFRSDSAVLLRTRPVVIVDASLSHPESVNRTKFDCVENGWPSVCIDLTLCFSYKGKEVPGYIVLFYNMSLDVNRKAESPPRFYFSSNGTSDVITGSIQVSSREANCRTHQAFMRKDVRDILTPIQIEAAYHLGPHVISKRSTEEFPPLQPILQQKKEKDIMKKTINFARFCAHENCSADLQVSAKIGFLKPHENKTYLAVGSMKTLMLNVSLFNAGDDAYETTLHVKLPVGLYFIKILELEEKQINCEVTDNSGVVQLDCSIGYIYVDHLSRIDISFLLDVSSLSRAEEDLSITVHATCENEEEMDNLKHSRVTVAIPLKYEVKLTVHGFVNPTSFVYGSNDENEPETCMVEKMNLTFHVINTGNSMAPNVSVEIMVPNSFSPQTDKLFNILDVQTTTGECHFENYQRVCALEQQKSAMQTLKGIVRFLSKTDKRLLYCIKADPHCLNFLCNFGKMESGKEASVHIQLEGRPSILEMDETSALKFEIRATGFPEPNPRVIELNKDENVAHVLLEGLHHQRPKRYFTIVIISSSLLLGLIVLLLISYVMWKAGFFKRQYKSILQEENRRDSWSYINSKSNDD
T2 sequence (P26010 20-798): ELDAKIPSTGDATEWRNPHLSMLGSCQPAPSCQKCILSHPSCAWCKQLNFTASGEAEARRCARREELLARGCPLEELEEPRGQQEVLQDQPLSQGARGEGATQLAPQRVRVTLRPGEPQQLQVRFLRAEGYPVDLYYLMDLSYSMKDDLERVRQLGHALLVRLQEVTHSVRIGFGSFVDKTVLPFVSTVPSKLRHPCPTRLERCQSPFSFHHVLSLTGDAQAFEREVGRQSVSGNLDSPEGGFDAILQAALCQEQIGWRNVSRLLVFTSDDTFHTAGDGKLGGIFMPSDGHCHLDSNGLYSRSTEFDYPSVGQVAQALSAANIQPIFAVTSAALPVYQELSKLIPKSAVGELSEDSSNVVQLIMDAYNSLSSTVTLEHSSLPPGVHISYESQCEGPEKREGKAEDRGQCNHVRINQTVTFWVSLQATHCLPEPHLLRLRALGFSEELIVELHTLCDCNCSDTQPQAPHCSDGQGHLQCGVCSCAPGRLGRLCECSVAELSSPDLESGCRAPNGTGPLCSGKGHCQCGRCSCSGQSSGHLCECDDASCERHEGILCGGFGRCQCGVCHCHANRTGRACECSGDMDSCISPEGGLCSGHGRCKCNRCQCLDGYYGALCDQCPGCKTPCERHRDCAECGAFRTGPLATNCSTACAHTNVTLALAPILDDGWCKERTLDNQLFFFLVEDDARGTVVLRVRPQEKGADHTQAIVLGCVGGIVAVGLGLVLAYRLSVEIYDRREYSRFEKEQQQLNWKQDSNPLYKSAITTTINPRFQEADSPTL
Procedure: The recombinant zz-MAdCAM was absorbed onto Maxisorp plate pre-coated for 2.5 hours at 37° C. with 100 μL of human IgG, and then washed twice with PBS. For capture the recombinant zz-MAdCAM was diluted to the appropriate concentration in 3% BSA/PBS, 100 μl added to each well, and incubated overnight at 4° C. Prior to use plates were washed twice in PBS.
For the α4β7 adhesion assay RPMI8866 cells were washed in cation free HBSS supplemented with 1 mM EDTA, pelleted and labelled by incubating with BCECF (Molecular Probes) in cation-free HBSS at 37° C. for 10 minutes. At this stage cells were also co-incubated with […] human IgG to block endogenous Fc receptors. Cells were then washed once more in cation-free HBSS and then used in the adhesion assay at a final concentration of 3×10^6 cells ml^−1 in the presence of the appropriate treatment as indicated. To prevent cells clumping the assay plate was finally centrifuged at 400 rpm for 3 minutes without the brake. Cells were then incubated for 20 minutes at 37° C. and then washed twice in PBS before reading directly in a plate reader. For antibody inhibition studies the cells were preincubated with the appropriate antibody at […] for 5 minutes at room temperature prior to being placed in the incubator.

T1 sequence (P05556 21-798, one chain of several): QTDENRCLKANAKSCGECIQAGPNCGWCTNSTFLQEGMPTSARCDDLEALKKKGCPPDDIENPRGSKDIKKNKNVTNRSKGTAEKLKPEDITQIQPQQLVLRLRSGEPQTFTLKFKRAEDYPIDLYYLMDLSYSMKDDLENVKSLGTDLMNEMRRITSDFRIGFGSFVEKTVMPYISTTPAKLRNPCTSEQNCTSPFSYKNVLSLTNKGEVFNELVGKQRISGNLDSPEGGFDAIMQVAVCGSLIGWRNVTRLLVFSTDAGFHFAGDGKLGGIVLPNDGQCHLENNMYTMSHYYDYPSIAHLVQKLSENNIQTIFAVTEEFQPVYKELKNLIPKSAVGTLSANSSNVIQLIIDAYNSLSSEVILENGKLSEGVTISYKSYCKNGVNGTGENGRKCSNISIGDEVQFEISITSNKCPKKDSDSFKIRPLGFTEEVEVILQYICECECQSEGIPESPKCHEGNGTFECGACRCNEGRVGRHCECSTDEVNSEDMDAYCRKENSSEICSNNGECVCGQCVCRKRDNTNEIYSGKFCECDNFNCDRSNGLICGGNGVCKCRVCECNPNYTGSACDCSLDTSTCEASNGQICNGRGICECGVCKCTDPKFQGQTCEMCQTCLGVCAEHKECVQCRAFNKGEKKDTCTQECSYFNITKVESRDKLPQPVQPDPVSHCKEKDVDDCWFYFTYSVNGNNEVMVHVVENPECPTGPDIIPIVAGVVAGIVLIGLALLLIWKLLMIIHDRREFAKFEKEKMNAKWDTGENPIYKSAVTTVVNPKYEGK

Arg168: SVVYGLR synthetic peptide in which Arg168 is mutated to alanine (SVVYGLA; SVVYGLR peptide; UniProt P10451 162-168, looked up, variant R168A)
Relative potency compared to parent peptide SVVYGLR against α4β1 (J6 adhesion to GST-CS-1) (α4β1 [1]): more potent | Selectivity between α4β1 and α4β7 on mutating the residue (α4β1 [2]): introduces a degree of selectivity | Relative potency compared to parent peptide SVVYGLR against α4β7 (RPMI8866 adhesion to zz-MAdCAM) (α4β7): less potent
